Our source for the Kd, koff and kon values is patent US20090252741A1.

The assay has as its target human CTLA-4Ig fusion protein (extracellular domain of human CTLA-4 and the Fc fragment of human IgG1) (human) (UniProt P16410). Briefly: Biacore SPR, huCTLA-4Ig immobilized by amine coupling, mAb injected, 25 C.
Chain of UniProt P16410 (P16410 36-161): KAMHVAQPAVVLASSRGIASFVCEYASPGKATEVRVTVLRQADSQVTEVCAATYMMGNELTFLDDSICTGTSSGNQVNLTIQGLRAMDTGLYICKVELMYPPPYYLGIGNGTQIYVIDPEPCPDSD

B1: anti-human CTLA-4 mAb clone L3D10 (antibody, from another filing, V domains shown)
VH: QVQLKESGPGLVAPSQSLSITCTVSGFSLTSYGLSWVRQPPGKGLEWLGVIWYDGNTNFHSALISRLTISKDNSKSQVFLELNSLQTDDTATYYCAKTEGHYYGSNYGYYALDYWGQGTSVTVSS
VL: DIQMTQSPASLSVSVGETVTITCRASENIYSNLAWYQQKQGKSPQLLVYAATNLADGVPSRFSGSGSGTQYSLKINSLQSEDFGTYFCQHLWGTPYTFGGGTKLEIKR
The Kd is the constant that tells how readily two partners part at equilibrium. Usually koff stands for the first-order rate constant of dissociation. A lower koff goes with slow dissociation. By kon is commonly meant the second-order rate constant of association. High values mean fast association, low ones slow association. The molecule B1 showed a Kd of 3.06 nM, a koff of 0.000633 s⁻¹ and a kon of 207000 M⁻¹ s⁻¹.
